This is an account of results in patent US20200022914A1, “LIPOSOMAL COMPOSITIONS AND SOLID ORAL DOSAGE FORMS COMPRISING THE SAME” (UNIVERSITÄT HEIDELBERG, priority 2017, published 2020).

A short description of the data set: Single dose PK study of oral Adalimumab in comparison with intravenous administration. To be noted: beagle dogs; oral 15 mg in lyophilized liposomes with 1 mol-% cycR9 conjugate in enteric coated capsule vs 3 mg intravenous; comparison of AUC values, ELISA. The data set is classed as in vivo. The protocol: Single dose PK study of oral Adalimumab (Humira™) in comparison with Adalimumab after intravenous administration. As animals, 2 beagle dogs were used. The oral dose of Adalimumab was 15 mg encapsulated in liposomes containing 1-mol% of the cycR9 conjugate described before. The liposomes were lyophilized and afterwards filled in an enteric coated capsule. The intravenous dose was 3 mg. The blood sampling time points for the oral administration were: 0 (pre-dose), 0:15, 0:30, 1:00, 2:00, 4:00, 8:00, 24:00, 48:00, 96:00 h p.a. The blood sampling time points for the intravenous administration were: 0 (pre-dose), 0:15, 0:30, 1:00, 2:00, 4:00, 8:00, 24:00, 48:00, 96:00 h p.a. All blood samples were analyzed by ELISA measurements (IDKmonitor® Adalimumab drug level ELISA, Immundiagnostik AG, Bensheim).
In general terms: An ELISA detects its analyte on a solid surface through an enzyme-linked reagent.

As for Adalimumab, the “bioavailability after oral administration” value was 3.55%.
